In patent US20210269818A1:

These substances were tested against Rubisco purified from wheat leaves, inhibited by RuBP (ER) (Triticum aestivum (wheat)) (UniProt P11383) (assay: cell-based or functional assay).

Substance | Tm (° C.) (V): thermal midpoint at which half of Rubisco activation velocity by Rca is lost
recombinant rice Rca β (OsRca-β), signal peptide deleted, C-terminal His-tag (from UniProt P93431 49-466) (enzyme) | 42.5
recombinant wheat Rca2 α (TaRca2-α), signal peptide deleted, C-terminal His-tag (from UniProt Q40073 47-464) (enzyme) | 35.3
recombinant wheat Rca2 β (TaRca2-β), signal peptide deleted, C-terminal His-tag (from UniProt Q40073 49-427) (enzyme) | 34.8

The remaining lines, values ahead:

Tm (° C.) (V): thermal midpoint at which half of Rubisco activation velocity by Rca is lost | Substance
38.6 | Rca extracted from control wheat leaves (TaRca-leaf-25° C.) (enzyme)
39.5 | Rca extracted from heat treated wheat leaves (TaRca-leaf-38° C.) (enzyme)
42 | recombinant wheat Rca1 β (TaRca1-β), signal peptide deleted, C-terminal His-tag (from UniProt Q42450 44-425) (enzyme)
